Experimental data as given in publication PMC7962585 (Cell, 2021).

B1: S2X333 IgG1 (antibody, V domains shown)
VH: VQLVESGGGVVQPGRSLRLSCAASGFTFSNYGMHWVRQAPGKGLEWVAVIWYDGSNKFYADSVKGRFTISRDNSKNSLYLQMNSLRAEDTAVYFCARAFPDSSSWSGFTIDYWGQGTLVTV
VL: YELTQPPSVSTARITCGGNNIERKSVHWCQQKPGQAPALVVYDDSDRPSGIPERFSGSNSGNTATLTISRVEAGDEADYYCQVWDSGSDQVIFGGGTKLT
B2: S2L28 IgG1 (antibody, V domains shown)
VH: EVQLVESGGGLVNPGGSLRLSCAASGFTFSDYTIHWVRQAPGKGLEWVSSISSSSNYIYYADSVKGRFTISRDNAKNSLSLQMNSLRAEDTAVYYCARDGNAYKWLLAENVRFDYWGQGTLVTVSS
VL: VTQPASVSGSPGQSITISCTGTSSDVGGYNYVSWYQQHPGKAPKLMIYDVSDRPSGVSNRFSGSKSGNTASLTISGLQAEDEADYYCSSYTSSSTPNWVFGGGTKLT
B3: S2M28 IgG1 (antibody, V domains shown)
VH: EVQLVESGGGVVQPGRSLRLSCAASGFTFSSYGMHWVRQAPGKGLEWVTVIWYDGSNRYYADSVKGRFTISRDNSKNTLYLQMDSLRAEDTAVYYCARAVAGEWYFDYWGQGTLVTVSS
VL: SYELTQPPSVSVSPGQTARITCSGDALAKHYAYWYRQKPGQAPVLVIYKDSERPSGIPERFSGSSSGTTVTLTISGVQAEDEADYYCQSADSIGSSWVFGGGTKLTVL

These binders were tested against full-length wild-type SARS-CoV-2 S (Severe acute respiratory syndrome …, UniProt P0DTC2) (assay: flow cytometry on cells).
B1: binds.
B2: binds.
B3: binds.
